From paper PMC9371972, “Cryo-EM structure of the human CST–Polα/primase complex in a recruitment state” (Nature Structural & Molecular Biology, 2022) come the findings set out here.

Assay [1] deals with CTC1–STN1–TEN1 (CST) complex (human) (UniProt Q2NKJ3). The experiment in a line: cryo-EM structure; CST and Polα/primase (PP^FL or PP^ΔN) mixed equimolar (1.5 μM each) with (GGTTAG)3 ssDNA, cross-linked by GraFix (glutaraldehyde, glycerol gradient), 20 mM HEPES pH 7.5, 150 mM NaCl, 10 mM MgCl2, 0.5 mM TCEP.
The target of assay [2] is T1, His6-MBP-CTC1–STN1–TEN1 (human, UniProt Q2NKJ3 1-1217; Q9H668 1-368; Q86WV5 1-123, RED-tris-NTA second-generation dye on the His6 tag).
T1 chain 1: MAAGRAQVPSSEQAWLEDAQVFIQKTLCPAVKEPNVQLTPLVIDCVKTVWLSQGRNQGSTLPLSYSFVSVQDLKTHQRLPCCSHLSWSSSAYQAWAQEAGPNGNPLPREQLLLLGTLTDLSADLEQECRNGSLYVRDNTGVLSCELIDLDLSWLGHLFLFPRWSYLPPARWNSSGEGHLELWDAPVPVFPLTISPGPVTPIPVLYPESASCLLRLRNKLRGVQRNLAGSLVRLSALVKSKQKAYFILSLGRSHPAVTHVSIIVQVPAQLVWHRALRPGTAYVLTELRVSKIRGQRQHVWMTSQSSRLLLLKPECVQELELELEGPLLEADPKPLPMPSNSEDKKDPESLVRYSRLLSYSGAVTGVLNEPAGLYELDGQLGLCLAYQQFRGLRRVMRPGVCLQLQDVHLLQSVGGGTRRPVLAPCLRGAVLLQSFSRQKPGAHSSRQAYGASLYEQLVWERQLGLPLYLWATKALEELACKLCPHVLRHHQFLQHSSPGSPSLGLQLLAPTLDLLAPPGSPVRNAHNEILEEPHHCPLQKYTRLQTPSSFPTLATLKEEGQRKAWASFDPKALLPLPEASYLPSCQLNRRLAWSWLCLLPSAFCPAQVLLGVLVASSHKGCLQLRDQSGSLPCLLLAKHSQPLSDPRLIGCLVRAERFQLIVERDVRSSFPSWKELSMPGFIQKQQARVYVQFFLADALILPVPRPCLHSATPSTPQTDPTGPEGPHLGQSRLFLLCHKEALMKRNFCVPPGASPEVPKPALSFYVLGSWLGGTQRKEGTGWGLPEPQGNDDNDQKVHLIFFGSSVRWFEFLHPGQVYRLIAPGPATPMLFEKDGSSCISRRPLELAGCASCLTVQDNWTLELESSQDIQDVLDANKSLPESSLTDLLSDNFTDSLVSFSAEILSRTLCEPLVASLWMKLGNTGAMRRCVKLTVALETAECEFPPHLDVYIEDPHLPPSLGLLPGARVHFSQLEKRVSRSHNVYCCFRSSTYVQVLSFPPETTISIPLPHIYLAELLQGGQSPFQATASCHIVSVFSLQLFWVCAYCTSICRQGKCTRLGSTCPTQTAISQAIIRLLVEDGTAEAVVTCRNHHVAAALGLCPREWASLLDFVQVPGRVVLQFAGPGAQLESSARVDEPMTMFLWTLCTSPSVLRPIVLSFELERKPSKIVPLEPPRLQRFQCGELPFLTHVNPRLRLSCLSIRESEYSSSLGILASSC
T1 chain 2: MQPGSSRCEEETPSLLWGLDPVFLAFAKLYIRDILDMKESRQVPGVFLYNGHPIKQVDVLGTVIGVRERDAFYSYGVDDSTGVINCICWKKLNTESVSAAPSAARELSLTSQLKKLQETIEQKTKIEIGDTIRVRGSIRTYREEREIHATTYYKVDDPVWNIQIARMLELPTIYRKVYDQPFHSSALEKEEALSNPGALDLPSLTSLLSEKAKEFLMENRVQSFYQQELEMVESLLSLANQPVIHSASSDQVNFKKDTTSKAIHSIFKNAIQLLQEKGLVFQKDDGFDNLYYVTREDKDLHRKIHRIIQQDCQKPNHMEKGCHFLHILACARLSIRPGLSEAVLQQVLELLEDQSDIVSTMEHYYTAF
T1 chain 3: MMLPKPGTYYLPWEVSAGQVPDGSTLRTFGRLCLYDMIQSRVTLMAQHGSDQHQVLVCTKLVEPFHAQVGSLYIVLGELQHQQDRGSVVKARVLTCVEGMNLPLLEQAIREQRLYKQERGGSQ
The experiment in a line: MST; binding event 1, independent experiment 1.

Assay [3] addresses T1, His6-MBP-CTC1–STN1–TEN1. Put plainly: MST; binding event 1, independent experiment 2.
In assay [4] the target is T1, His6-MBP-CTC1–STN1–TEN1. The experiment in a line: MST; binding event 1, independent experiment 3.
The target in assay [5] is T1, His6-MBP-CTC1–STN1–TEN1. The experiment in a line: MST; binding event 2 (second site), independent experiment 1.
The target in assay [6] is T1, His6-MBP-CTC1–STN1–TEN1. The experiment in a line: MST; binding event 2 (second site), independent experiment 2.
Assay [7] concerns the target T1, His6-MBP-CTC1–STN1–TEN1. Put plainly: MST; binding event 2 (second site), independent experiment 3.
In assay [8] the target is T2, His6-MBP-CTC1–STN1–TEN1 (human, UniProt Q2NKJ3 1-1217; Q9H668 1-368; Q86WV5 1-123, RED-tris-NTA second-generation dye on the His6 tag).
T2 construct: human CTC1; human STN1; human TEN1; A PreScission site lies between MBP and CTC1; also called His6-MBP-CST; fluorescently labeled CST; source: Tni insect cells (baculovirus), purified (Ni-NTA, heparin, SEC; protease-cleavage step omitted); not shown: His6, N-terminal, kept; MBP, N-terminal, kept; copies: + +
Put plainly: MST; 50 nM RED-tris-NTA-labeled His6-MBP-CST with serial dilutions of unlabeled POLA1^CTD constructs; room temperature; 20 mM HEPES pH 7.5, 150 mM NaCl, 5 mM DTT, 0.05% Tween-20; CRL^WT data split into two binding events. To be noted: both partners purified.

Assay [9] addresses T3, full-length Polα/primase (POLA1^FL/POLA2/PRIM1/PRIM2) (human, UniProt P09884 1-1462; Q14181 1-598; P49642 1-420; P49643 1-509).
T3 construct: human POLA2; human PRIM1; human PRIM2; The methods describe no tag cleavage for this complex (PreSc site after MBP, TEV site after StrepII); also called PP^FL; DNA polymerase α–primase; source: Tni insect cells (baculovirus), purified (Ni-NTA, RESOURCE Q, SEC); copies: + + +
The experiment in a line: SEC; purified proteins mixed (PP^FL and CST equimolar; CST with twofold molar excess of His6-MBP-POLA1^N), 1 h at 4 °C, HiLoad Superdex 200 16/600 PG, 20 mM HEPES pH 7.5, 150 mM NaCl, 0.5 mM TCEP, 5% glycerol. Conditions: both partners purified. A general note: In gel filtration, larger molecules generally elute earlier.

T3 sequence (Q14181 whole entry, chain 2 of 3): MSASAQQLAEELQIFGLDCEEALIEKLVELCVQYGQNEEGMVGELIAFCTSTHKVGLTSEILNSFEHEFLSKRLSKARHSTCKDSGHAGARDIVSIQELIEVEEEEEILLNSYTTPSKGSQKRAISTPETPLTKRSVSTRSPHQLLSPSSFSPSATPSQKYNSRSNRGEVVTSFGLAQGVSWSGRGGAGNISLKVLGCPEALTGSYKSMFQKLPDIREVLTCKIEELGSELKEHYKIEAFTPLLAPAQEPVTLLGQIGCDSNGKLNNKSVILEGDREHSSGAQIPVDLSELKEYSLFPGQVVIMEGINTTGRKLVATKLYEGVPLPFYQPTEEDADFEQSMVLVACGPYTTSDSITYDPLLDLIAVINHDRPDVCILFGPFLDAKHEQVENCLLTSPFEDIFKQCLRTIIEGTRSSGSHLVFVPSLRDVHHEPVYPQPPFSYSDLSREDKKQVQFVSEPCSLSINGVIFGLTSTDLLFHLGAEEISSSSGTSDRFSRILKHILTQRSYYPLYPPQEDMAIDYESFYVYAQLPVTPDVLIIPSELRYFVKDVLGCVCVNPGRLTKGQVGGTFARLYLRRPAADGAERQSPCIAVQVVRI
T3 sequence (P49642 whole entry, chain 3 of 3): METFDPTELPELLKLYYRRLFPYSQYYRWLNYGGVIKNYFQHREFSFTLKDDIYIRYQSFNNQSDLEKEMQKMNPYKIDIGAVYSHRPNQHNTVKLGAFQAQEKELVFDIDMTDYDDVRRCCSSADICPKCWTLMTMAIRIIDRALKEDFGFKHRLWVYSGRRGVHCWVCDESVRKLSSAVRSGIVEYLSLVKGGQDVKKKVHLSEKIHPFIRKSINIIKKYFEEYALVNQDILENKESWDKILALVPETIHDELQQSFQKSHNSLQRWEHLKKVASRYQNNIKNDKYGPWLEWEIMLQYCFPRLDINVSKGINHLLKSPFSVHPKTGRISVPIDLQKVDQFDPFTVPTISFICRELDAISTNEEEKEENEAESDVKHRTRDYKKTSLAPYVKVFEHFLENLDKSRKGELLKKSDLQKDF
T3 sequence (P49643 whole entry, chain 4 of 3): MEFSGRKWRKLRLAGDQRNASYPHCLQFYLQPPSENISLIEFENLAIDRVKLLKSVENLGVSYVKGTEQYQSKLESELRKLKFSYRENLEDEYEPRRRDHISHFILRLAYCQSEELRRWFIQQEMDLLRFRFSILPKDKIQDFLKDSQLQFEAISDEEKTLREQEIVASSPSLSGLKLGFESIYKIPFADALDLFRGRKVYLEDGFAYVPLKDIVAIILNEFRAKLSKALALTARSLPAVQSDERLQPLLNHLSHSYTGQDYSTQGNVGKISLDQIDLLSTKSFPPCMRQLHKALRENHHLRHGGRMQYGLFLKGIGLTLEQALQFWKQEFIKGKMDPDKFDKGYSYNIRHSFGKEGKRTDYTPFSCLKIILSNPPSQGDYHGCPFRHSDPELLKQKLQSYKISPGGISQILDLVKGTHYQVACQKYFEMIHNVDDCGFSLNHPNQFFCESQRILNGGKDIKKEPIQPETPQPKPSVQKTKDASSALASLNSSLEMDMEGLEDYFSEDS

In turn, “full-length Polα/primase (POLA1^FL/POLA2/PRIM1/PRIM2), P09884 1-1462; Q14181 1-598; P49642 1-420; P49643 1-509” registered a stoichiometry N in assay [1] of 1.

B1: POLA1^CTD with the wild-type CRL (domain or fragment, human, UniProt P09884 1265-1462, looked up)
chain: AQLTDEEKYRDCERFKCPCPTCGTENIYDNVFDGSGTDMEPSLYRCSNIDCKASPLTFTVQLSNKLIMDIRRFIKKYYDGWLICEEPTCRNRTRHLPLQFSRTGPLCPACMKATLQPEYSDKSLYTQLCFYRYIFDAECALEKLTTDHEKDKLKKQFFTPKVLQDYRKLKNTAEQFLSRSGYSEVNLSKLFAGCAVKS
notes: also called CRL^WT; source: E. coli Rosetta(DE3), purified (Ni-NTA, Ulp1 cleavage, reverse Ni-NTA, SEC); not shown: His6, N-terminal, cleaved; Smt3, N-terminal, cleaved
In the case of B1, the Kd with His6-MBP-CTC1–STN1–TEN1 [2] was determined as 1.4 µM; with His6-MBP-CTC1–STN1–TEN1 [3] it was 13 µM; with His6-MBP-CTC1–STN1–TEN1 [4], 14 µM; with His6-MBP-CTC1–STN1–TEN1 [5] it was 56 µM; with His6-MBP-CTC1–STN1–TEN1 [6], 216 µM; with His6-MBP-CTC1–STN1–TEN1 [7], 156 µM. In addition, in the assay with His6-MBP-CTC1–STN1–TEN1 [8], the “KD of binding event 1” value was ~3.3 µM. Moreover, the “KD of binding event 2” value with His6-MBP-CTC1–STN1–TEN1 [8] is ~122 µM.

B2: CTC1–STN1–TEN1 (CST) complex (complex, human)
chain 1: MAAGRAQVPSSEQAWLEDAQVFIQKTLCPAVKEPNVQLTPLVIDCVKTVWLSQGRNQGSTLPLSYSFVSVQDLKTHQRLPCCSHLSWSSSAYQAWAQEAGPNGNPLPREQLLLLGTLTDLSADLEQECRNGSLYVRDNTGVLSCELIDLDLSWLGHLFLFPRWSYLPPARWNSSGEGHLELWDAPVPVFPLTISPGPVTPIPVLYPESASCLLRLRNKLRGVQRNLAGSLVRLSALVKSKQKAYFILSLGRSHPAVTHVSIIVQVPAQLVWHRALRPGTAYVLTELRVSKIRGQRQHVWMTSQSSRLLLLKPECVQELELELEGPLLEADPKPLPMPSNSEDKKDPESLVRYSRLLSYSGAVTGVLNEPAGLYELDGQLGLCLAYQQFRGLRRVMRPGVCLQLQDVHLLQSVGGGTRRPVLAPCLRGAVLLQSFSRQKPGAHSSRQAYGASLYEQLVWERQLGLPLYLWATKALEELACKLCPHVLRHHQFLQHSSPGSPSLGLQLLAPTLDLLAPPGSPVRNAHNEILEEPHHCPLQKYTRLQTPSSFPTLATLKEEGQRKAWASFDPKALLPLPEASYLPSCQLNRRLAWSWLCLLPSAFCPAQVLLGVLVASSHKGCLQLRDQSGSLPCLLLAKHSQPLSDPRLIGCLVRAERFQLIVERDVRSSFPSWKELSMPGFIQKQQARVYVQFFLADALILPVPRPCLHSATPSTPQTDPTGPEGPHLGQSRLFLLCHKEALMKRNFCVPPGASPEVPKPALSFYVLGSWLGGTQRKEGTGWGLPEPQGNDDNDQKVHLIFFGSSVRWFEFLHPGQVYRLIAPGPATPMLFEKDGSSCISRRPLELAGCASCLTVQDNWTLELESSQDIQDVLDANKSLPESSLTDLLSDNFTDSLVSFSAEILSRTLCEPLVASLWMKLGNTGAMRRCVKLTVALETAECEFPPHLDVYIEDPHLPPSLGLLPGARVHFSQLEKRVSRSHNVYCCFRSSTYVQVLSFPPETTISIPLPHIYLAELLQGGQSPFQATASCHIVSVFSLQLFWVCAYCTSICRQGKCTRLGSTCPTQTAISQAIIRLLVEDGTAEAVVTCRNHHVAAALGLCPREWASLLDFVQVPGRVVLQFAGPGAQLESSARVDEPMTMFLWTLCTSPSVLRPIVLSFELERKPSKIVPLEPPRLQRFQCGELPFLTHVNPRLRLSCLSIRESEYSSSLGILASSC
chain 2: MQPGSSRCEEETPSLLWGLDPVFLAFAKLYIRDILDMKESRQVPGVFLYNGHPIKQVDVLGTVIGVRERDAFYSYGVDDSTGVINCICWKKLNTESVSAAPSAARELSLTSQLKKLQETIEQKTKIEIGDTIRVRGSIRTYREEREIHATTYYKVDDPVWNIQIARMLELPTIYRKVYDQPFHSSALEKEEALSNPGALDLPSLTSLLSEKAKEFLMENRVQSFYQQELEMVESLLSLANQPVIHSASSDQVNFKKDTTSKAIHSIFKNAIQLLQEKGLVFQKDDGFDNLYYVTREDKDLHRKIHRIIQQDCQKPNHMEKGCHFLHILACARLSIRPGLSEAVLQQVLELLEDQSDIVSTMEHYYTAF
chain 3: MMLPKPGTYYLPWEVSAGQVPDGSTLRTFGRLCLYDMIQSRVTLMAQHGSDQHQVLVCTKLVEPFHAQVGSLYIVLGELQHQQDRGSVVKARVLTCVEGMNLPLLEQAIREQRLYKQERGGSQ
notes: human CTC1; human STN1; human TEN1; Expressed from pBIG1a(His6-MBP-PreSc-CTC1/STN1/TEN1); tag removed with rhinovirus 3C protease; source: Tni insect cells (baculovirus), purified (Ni-NTA, 3C protease cleavage, heparin, SEC); not shown: His6, N-terminal, cleaved; MBP, N-terminal, cleaved; copies: + +
B2: in assay [9], the binding result is listed as “binds”.

B3: POLA1^CTD with the CRL swapped for the S. pombe short loop (domain or fragment, human | S. pombe)
chain: AQLTDEEKYRDCERFKCPCPTCGTENIYDNVFDGSGTDMEPSLYRCSNIDCKASPLTFTVQLSNKLIMDIRRFIKKYYDGWLICEEPTCRNRTRHLPLQFSRTGPLCPACMKATLQPEYSDKSLYTQLCFYRYIFQTTTGATKVLQDYRKLKNTAEQFLSRSGYSEVNLSKLFAGCAVKS
notes: short loop of the S. pombe POLA1 orthologue, in place of the human CRL (residues 1400-1424); also called CRL^(S. pombe); source: E. coli Rosetta(DE3), purified (Ni-NTA, Ulp1 cleavage, reverse Ni-NTA, SEC); not shown: His6, N-terminal, cleaved; Smt3, N-terminal, cleaved
B3: the figures for the Kd in the assay with His6-MBP-CTC1–STN1–TEN1 [5], with His6-MBP-CTC1–STN1–TEN1 [6] and with His6-MBP-CTC1–STN1–TEN1 [7] were 134 µM, 75 µM and 77 µM, respectively. The “KD of binding event 2” value with His6-MBP-CTC1–STN1–TEN1 [8] is ~88 µM.

B4: POLA1^CTD with the CRL swapped for a GGSGGS-linker (domain or fragment, human)
chain: AQLTDEEKYRDCERFKCPCPTCGTENIYDNVFDGSGTDMEPSLYRCSNIDCKASPLTFTVQLSNKLIMDIRRFIKKYYDGWLICEEPTCRNRTRHLPLQFSRTGPLCPACMKATLQPEYSDKSLYTQLCFYRYIFDAEGGSGGSTPKVLQDYRKLKNTAEQFLSRSGYSEVNLSKLFAGCAVKS
notes: linker in place of the CRL (residues 1403-1422); also called CRL^GGSGGS; source: E. coli Rosetta(DE3), purified (Ni-NTA, Ulp1 cleavage, reverse Ni-NTA, SEC); not shown: His6, N-terminal, cleaved; Smt3, N-terminal, cleaved
Take B4: the Kd in the assay with His6-MBP-CTC1–STN1–TEN1 [5] turned out to be 133 µM; in the assay with His6-MBP-CTC1–STN1–TEN1 [6], 79 µM; with His6-MBP-CTC1–STN1–TEN1 [7], 82 µM. The “KD of binding event 2” value in the assay with His6-MBP-CTC1–STN1–TEN1 [8] is ~96 µM.

The stoichiometry N is the number of molecules, sites or subunits per partner or assembly. What is called Kd is the equilibrium constant for the complex coming apart.
